In article PMC3733360 (Structure (London, England : 1993), 2008):
Residue numbers refer to the chain shown, from its start. Names may count otherwise. Blank lines part the entries; values can stand above or below the binder they belong to.

What was measured:
[1] = biological target: T1, Snc2pS (soluble Snc2p, amino acids 1-93), wild type (yeast, UniProt P33328 1-93); assay: EPR line shape
T1 sequence (looked up): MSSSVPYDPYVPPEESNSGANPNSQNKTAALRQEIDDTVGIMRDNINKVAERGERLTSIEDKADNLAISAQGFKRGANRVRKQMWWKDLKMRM

[2] = biological target: T2, Sso1pHT (amino acids 185-290 of Sso1p lacking the regulatory Habc domain), wild type (yeast, UniProt P32867 185-290); assay: EPR line shape
T2 sequence (looked up): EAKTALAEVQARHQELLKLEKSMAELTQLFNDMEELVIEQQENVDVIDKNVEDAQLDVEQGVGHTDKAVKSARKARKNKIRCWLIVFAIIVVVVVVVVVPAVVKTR

[3] = biological target: T3, Sec9c (amino acids 401-651 of Sec9), wild type (yeast, UniProt P40357 401-651); assay: FRET or BRET
T3 sequence (looked up): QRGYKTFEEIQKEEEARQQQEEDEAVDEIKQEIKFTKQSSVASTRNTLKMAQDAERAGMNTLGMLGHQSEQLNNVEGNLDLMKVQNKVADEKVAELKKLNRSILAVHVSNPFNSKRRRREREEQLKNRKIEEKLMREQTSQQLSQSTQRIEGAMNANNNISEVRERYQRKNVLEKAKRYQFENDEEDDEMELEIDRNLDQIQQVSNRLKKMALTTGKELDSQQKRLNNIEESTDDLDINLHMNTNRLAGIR

B1: Sec9c D599C, spin labeled with MTSSL (SN2) (domain or fragment, yeast, UniProt P40357 401-651, looked up)
chain: T3 sequence (looked up) with D199C
modifications: MTSSL nitroxide spin label on cysteine 599
percent of SN2 in an unstructured conformation (not in the complex) [1]: ~60% | percent of SN2 in an unstructured conformation (not in the complex) [2]: ~60%

B2: Sec9c H641C, spin labeled with MTSSL (SN2) (domain or fragment, yeast, UniProt P40357 401-651, looked up)
chain: T3 sequence (looked up) with H241C
modifications: MTSSL nitroxide spin label on cysteine 641
percent of SN2 in an unstructured conformation (not in the complex) [1]: ~60% | percent of SN2 in an unstructured conformation (not in the complex) [2]: ~60%

B3: Sec9c N606C, spin labeled with MTSSL (SN2) (domain or fragment, yeast, UniProt P40357 401-651, looked up)
chain: T3 sequence (looked up) with N206C
modifications: MTSSL nitroxide spin label on cysteine 606
percent of SN2 in an unstructured conformation (not in the complex) [1]: ~60% | percent of SN2 in an unstructured conformation (not in the complex) [2]: ~60%

B5: Sec9c D620C, spin labeled with MTSSL (SN2) (domain or fragment, yeast, UniProt P40357 401-651, looked up)
chain: T3 sequence (looked up) with D220C
modifications: MTSSL nitroxide spin label on cysteine 620
percent of SN2 in an unstructured conformation (not in the complex) [1]: ~60% | percent of SN2 in an unstructured conformation (not in the complex) [2]: ~60%

Second part, the binder after the results:

percent of SN2 in an unstructured conformation (not in the complex) [1]: ~60% | percent of SN2 in an unstructured conformation (not in the complex) [2]: ~60%
B4: Sec9c N627C, spin labeled with MTSSL (SN2) (domain or fragment, yeast, UniProt P40357 401-651, looked up)
chain: T3 sequence (looked up) with N227C
modifications: MTSSL nitroxide spin label on cysteine 627

binding result [3]: binds
B6: Sso1pHT E185C labeled with Cy3 (domain or fragment, yeast, UniProt P32867 185-290, looked up)
chain: T2 sequence (looked up) with E1C
modifications: Cy3 maleimide on cysteine 185

binding result [3]: binds
B7: full-length Snc2p (amino acids 1-115) P13C labeled with Cy5 (natural protein, yeast, UniProt P33328 1-115, looked up)
chain: MSSSVPYDPYVPCEESNSGANPNSQNKTAALRQEIDDTVGIMRDNINKVAERGERLTSIEDKADNLAISAQGFKRGANRVRKQMWWKDLKMRMCLFLVVIILLVVIIVPIVVHFS
modifications: Cy5 maleimide on cysteine 13
